Experimental data reported in patent US20250277208A1, “Method of Peptide Library Construction and Peptides Thereof” (Alcamena Stem Cell Therapeutics, LLC, priority 2024, published 2025).
Read-outs that look alike come from different tables or passages of the source.

What was measured:
IL-6 signaling = IL-6 signaling (Homo sapiens, UniProt P05231); experiment: IL-6 Bioassay (Promega), luciferase reporter cells, inhibition of IL-6-induced cell signaling; assay type: cell-based; settings: peptides incubated with IL-6 for 10 min, IL-6 0.5 nM, cells 6 hours
Procedure: To verify the ability of the peptides of the invention to inhibit IL-6-signaling, they were tested with the IL-6 Bioassay Kit (Promega). This kit includes human cells engineered to express the IL-6 receptor and a luciferase reporter driven by a response element. When IL-6 binds, the IL-6R transduces intracellular signals resulting in luminescence (fluorescence). Inhibition of IL-6 interaction with the receptor leads to the decrease of the luciferase expression and lower fluorescence.
The selected peptides were incubated with IL-6 for 10 min before being added to cell culture medium. […] Peptides 27 (2), 38 (2) and 45 (2) were also tested.
The ability of peptides to inhibit IL-6 signaling pathway was tested with the IL-6 Bioassay from Promega (cat #JA2501). The bioluminescent signal is detected and quantified using Bio-Glo™ Luciferase Assay System. Different concentrations of the test peptides were mixed with IL-6 (0.5 nM) and added to the IL-6 Bioassay Cells according to the manufacturer's instructions. Cells were incubated for 6 hours in a humidified incubator at 37° C. and 5% CO2 concentration. Following incubation, 75 microliters of the Bio-Glo™ Reagent was added to the cell culture and the luminescence was measured with a Biotek Synergy HTX plate reader. Data was analyzed according to manufacturer's recommendations.

IL-6 = molecular target: T1, IL-6 (Homo sapiens, UniProt P05231); experiment: Biacore surface plasmon resonance binding of peptides to immobilised IL-6; settings: Table 2, mutation combinations; N terminus acetylated, C terminus amidated; nd = not detected; read-out: KD (nM) P < 0.05
T1 construct: purchased R&D Systems BT7270B
Text: Two DNA fragments were amplified from a synthetic fragment of the IL-6R. The 5′ fragment was amplified with forward primer and a mixture of 432 reverse primers, each containing an overhang of 6 codons. The 3′ fragment was amplified with a mixture of 432 forward primers, also containing overhangs of six degenerate codons and the reverse primer. Either the first or the second nucleotide of each codon was replaced with a degenerate base. Following PCR amplification, DNA fragments were phosphorylated and ligated leading to various sequence rearrangements shown at the bottom of the FIG. 3. Four hundred thirty-two forward and reverse oligos with an overhang of 6 codons from the IL-6R binding domain were used for PCR. A degenerate nucleotide was inserted at the first or second position of each codon. When ligated, these sequences generated a library of 1×10^13 different DNA sequences. The library of DNA sequences was taken through eight rounds of mRNA Display generating a peptide library. Eighteen of the most abundant peptides in the peptide library were synthesized in a linear form and tested for binding to IL-6 using Biacore. One of the peptides (#9) (“Peptide 9”) from the peptide library, with the sequence of […] The twelve non-terminal residues represent the PepFusion library-derived DNA sequences, while N-terminal serine and C-terminal glycine come from the flanking linkers and were kept as a precaution, in case linker sequences contributed to peptide interaction with its target.
Binding reactions were performed in HBS-P/2% DMSO buffer (10 mM Hepes, pH 7.4, 150 mM NaCl, 0.05% P-20, 2% DMSO), which was filtered through […] filters and degassed before use. Biotinylated recombinant human IL-6 (IL-6-Biotin) was bound to the surface of a Biacore SA sensor chip of a Biacore T200 surface plasmon resonance unit as follows. The streptavidin surface of the chip (flow cells 1 and 2) was activated by injecting 20 μl of 1 M NaCl/50 mM NaOH at 20 μl/min, in 3 pulses. Biotinylated Recombinant Human IL6 was diluted with HBS-P buffer and an aliquot of 100 μl (2 micrograms/ml) was injected into flow cell 2 at 5 microliters/min to yield a signal of 1400 response units (RU) (10 microliters were injected). Any remaining activated residues on the streptavidin surface of flow cells 1 and 2 were blocked with 30 microliters 500 nM free Biotin.
(§1) Affinity scouting assay was performed at a flow rate of 30 microliters/min at 25° C. The analyte (60 microliter aliquots of peptides, at concentrations of 20 μM in HBS-P/2% DMSO buffer) was injected into flow cells 1 and 2 and the association reaction was recorded. The surface was then washed with HBS-P/2% DMSO for 3 min and the dissociation of the analyte from the bound IL6 was followed over time. The surfaces of the flow cells were regenerated with 30 microliters of 10 mM NaOH, followed 50 microliters of HBS-P/2% DMSO buffer.
as §1, with “Kinetics analysis of binding was performed” for “Affinity scouting assay was performed”, “concentrations of 0, 1.25 μM, 2.5 μM, 5 μM, 10 μM and 20 μM” for “concentrations of 20 μM”, “DMSO buffer. Sensorgrams were analyzed using BIAeveluation 3.2.1 software (Cytiva). Values from the reference flow cell were subtracted to obtain the values for specific binding. Data were globally fitted to the Langmuir model for a 1:1 mass transfer binding.” for “DMSO buffer.”

[1] = molecular target: T2, Biotinylated recombinant human IL-6 (human, UniProt P05231 30-212, biotinylated (sites not given)); experiment: cell-based or functional assay
[2] = molecular target: T2, Biotinylated recombinant human IL-6; experiment: SPR (Biacore), IL-6 on chip
[3] = molecular target: T2, Biotinylated recombinant human IL-6; experiment: SPR (Biacore), IL-6 on chip; remark: listed apart in the source

IL-6 signaling, sequence (P05231 30-212): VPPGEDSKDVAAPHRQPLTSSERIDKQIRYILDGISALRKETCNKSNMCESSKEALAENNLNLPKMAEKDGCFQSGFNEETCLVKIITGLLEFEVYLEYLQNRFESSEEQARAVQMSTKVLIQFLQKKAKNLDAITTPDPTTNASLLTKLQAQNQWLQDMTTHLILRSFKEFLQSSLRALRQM

Molecule | IC50 (IL-6 signaling) [nM] | Kd (IL-6) [nM] | IC50, inhibition of IL-6-induced cell signaling (IL-6 Bioassay, luciferase reporter cells) [1] [µM] | Kd [2] [nM] | Kd [3] [nM]
Ac-SVRDLLRRMCHIVG-NH2 [9(2), SVRDLLRRMCHIVG] | 85 |  |  |  | 
Ac-SVRDLLRRMKVCVG-NH2 [27(2), SVRDLLRRMKVCVG] | 580 | 580 ± 156 |  |  | 
Ac-TIRDLIRMMKVCVG-NH2 [Peptide 100, TIRDLIRMMKVCVG] | 16800 |  |  |  | 
Ac-SVRDLLRRMCHIVG-NH2 (peptide 9 with protected termini) [Peptide 9 (2)] |  |  | 0.0854 | 354 | 300
Ac-SFRDLIRMMKVCVG-NH2 [Peptide 90] |  |  | 1.2 | 42 | 30
Ac-TIRDLIRMMKVCVG-NH2 [Peptide 100] |  |  | 16.8 | 59 | 50
